The record followed here is US20240092922A1 (EUCURE BEIJING BIOPHARMA, published 2024).

The chains are these.
B1: 54-8B11 (antibody, V domains shown)
VH: QIQLVQSGPELKKPGETVKISCKASKFTFTNYGMNWVKQAPGKALKWMGWINTYTGEPTYADDFKGRFDFSLETSATTAYLQINNLKNEDTATYFCARREYYPWVFVYWGQGTLVTVSA
VL: ENVLTQSPAIMSASPGEKVTMTCSASSSVSYMHWYQQKSSTSPKLWIYDTSKLASGVPGRFSGSGSGNSYSLTISSMEAEDVATYYCFQGSGYPLTFGGGTKLEIK
notes: mouse antibody purified from ascites
B2: 69-3C2 (antibody, V domains shown)
VH: DVQLVESGGGLVQPGGSRKLSCAASGFSFSSFGMHWMRQAPEKGLEWVAYISSGSSAIYYADTVKGRFTISRDNPKNTLFLQMTSLRSEDTAMYYCARDWVDYWGQGTTLTVSS
VL: DIQMTQSPASLSVSVGETVTITCRASENIYSNLVWYQQKQGKSPQLLVYTATKLTNGVPSRFSGSGSGTQYSLKINSLQSEDFGTYYCQHFWDTPYTFGGGTKLEMK
notes: as for B1
B3: 70-6F10 (antibody, V domains shown)
VH: QVQLQQSGPELVKPGASVKISCKASGYAFNNSWMNWVKQRPGQGLEWIGRIYPGDGDTDYNGKFKGKATLTADKSSSTAYMQLSSLTSVDSAVYFCARLDGNYYYWYFDVWGAGTTVTVSS
VL: not shown
notes: as for B1
B4: 55-8F6 (antibody, V domains shown)
VH: QVQLQQPGAELVRPGASVKLSCKASGYIFTSYWINWVKQRPGQGLEWIGNIYPSDSYTNYNQKFKDKATLTVDKSSSTAYMQLSSPTSEDSAVYYCTRFHYGSSPFDNWGQGTTLTVSS
VL: DIQMTQSTSSLSASLGDRVTISCRASQDISHYLNWYQQKPDGTVKLLIYYTSRLHSGVPSRFSGSGSGTDYSLTISNLEQEDFATYFCQQGHTLPRTFGGGTKLEIK
notes: as for B1
B5: 61-6A7 (antibody, V domains shown)
VH: EVQLQQSGAELVRPGALVKLSCKASGFNIKDYYMHWVKRRPEQGLEWIGWIDPENGNTIYDPKFQDKASITADTSSNTAYLQLSSLTSEDTAVYYCAEGLPWYFDYWGQGTTLTVSS
VL: QIILTQSPALMSASPGEKVTMTCSASSSVSDMNWYQQKPRSSPTPWIYLTSNLSSGVPDRFSGSGSGTSYSLTISSMEAEDAATYYCQQWSGNPLTFGAGTRLELK
notes: as for B1
B6: 70-3F9 (antibody, V domains shown)
VH: QVQLQQPGAELVRPGASVKLSCKASGYTFTSYWINWVKQRPGQGLEWIGNIFPSDSYTNYNQKFKDRAKLTVDKSSSTAYMQLSSPTSEDSAVYYCTRFGSSGYPDYYTMEYWGQGTSVTVSS
VL: DIQMTQSPASLSASVGETVTITCRASGNIDNYLAWYQQKQGKSPQLLVYNAKTLAEGVPSRFSGSGSGTEYSLKINSLQPEDFGSYHCQQYWTIPYTFGGGTKLEIK
notes: as for B1
B7: 30-5F9 (antibody, V domains shown)
VH: QVQLKESGPGLVAPSQSLSITCTVSGFSLTTYDISWVRQPPGKGLEWLGVIWTGGGTNYNSSFMSRLSISKDNSKNQVFLKMNSLQVDDTAIYYCERVDYWGQGTTLTVSS
VL: DVVMTQTPLSLPVSLGDQASISCRSSQSLVHSNGNTYLHWYLQKPGQSPKLLIYKVSNRFSGVPDRFSGSGSGTAFTFKISRVEAEDLGVYFCSQNTHVPWTFGGGTKLEIK
notes: as for B1
B8: 16-1C4 (antibody, V domains shown)
VH: QGQMQQSGAELVKPGASVKLSCKTSGFTFSSSYINWLKQKPGQSLEWIAWIFAGTGGTYYNQKFTGKAQLTVDTSSGTAYMQFSSLTTEDSAIYYCARHSPRATLFDFWGQGTTLTVSS
VL: QIVLSQSPAILSASPGEKVTMTCRASSSVNHMHWYQQRTGFSPKAWIYATSNLASGVPARFSGSGSGTSYSLTISRVEAEDAATYYCQQWSSNPYTFGGGTKLEIK
notes: as for B1

The target of the first assay is T1, monkey (Rhesus macaque) 4-1BB (r4-1BB) on transfected CHO cells (monkey (Rhesus macaque), UniProt Q07011 24-255 (human entry)).
T1 construct: also called rm4-1BB; CHO-r4-1BB
T1 chain: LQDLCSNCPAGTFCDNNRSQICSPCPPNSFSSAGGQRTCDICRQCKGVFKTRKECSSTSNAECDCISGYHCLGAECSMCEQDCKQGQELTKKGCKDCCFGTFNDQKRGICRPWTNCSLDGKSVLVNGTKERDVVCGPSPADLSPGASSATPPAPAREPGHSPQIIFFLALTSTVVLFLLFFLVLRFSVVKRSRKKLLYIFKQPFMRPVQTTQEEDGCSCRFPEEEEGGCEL
Briefly: flow cytometry on transfected CHO cells. (In general: A flow cytometer gives signals particle by particle.)
Protocol: (§1) 25 μl CHO cells were added to each well. 25 μl purified anti-h4-1BB antibodies (1 μg/ml) were added to each well and were incubated at 4° C. for 30 minutes.
(§2) After being washed with PBS (1200 rmp, 5 min) twice, 50 μl of FITC labeled anti-mouse IgG Fc antibody (anti-mIgG Fc-FITC) was added into each well at 1:100 dilution, followed by incubating at 4° C. for 30 minutes, and then PBS wash (1200 rmp, 5 min). In some cases, PE labeled anti-mouse IgG Fc antibody (anti-mIgG Fc-PE) was used to label the antibody instead, and was added into each tested well at 1:500 dilution. The signals for FITC and PE were determined by flow cytometry.
Take B1: the binding result is given as “binds”.

B2: the binding result was “binds”.

Regarding B3, the binding result is “binds”.

Regarding B4, the binding result is “binds”.

Consider B5, for which the binding result is reported as “binds”.

Consider B6, for which the binding result is listed as “binds”.

The next assay deals with T2, chimeric (mouse and human) 4-1BB (c4-1BB) on transfected CHO cells (chimeric (mouse and human)).
T2 construct: also called chi4-1BB; CHO-c4-1BB
Briefly: flow cytometry on transfected CHO cells.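 Further: antibodies tested at 1 µg/ml on CHO cells for 30 min at 4 °C, binding detected with FITC- or PE-labeled anti-mouse IgG Fc secondary by flow cytometry.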
Protocol: as §1, §2
On to B1, for which the binding result is on record as “binds”.

Consider B2, for which the binding result is on record as “binds”.

B3: the binding result is recorded as “binds”.

For B4, the binding result is on record as “binds”.

In the case of B5, the binding result was “binds”.

For B6, the binding result is recorded as “binds”.

Another assay concerns the target T3, mouse 4-1BB (m4-1BB) on transfected CHO cells (mouse, UniProt P20334 24-256).
T3 construct: also called CHO-m4-1BB
Briefly: flow cytometry on CHO cells transfected with mouse 4-1BB.
Protocol: as §1, §2
Turning to B1, the binding result was “no binding (tested: 1 µg/ml)”.

On to B2, for which the binding result is on record as “no binding (tested: 1 µg/ml)”.

As to B3, the binding result is reported as “no binding (tested: 1 µg/ml)”.

Take B4: the binding result is given as “no binding (tested: 1 µg/ml)”.

As for B5, the binding result is on record as “no binding (tested: 1 µg/ml)”.

Take B6: the binding result is listed as “no binding (tested: 1 µg/ml)”.

In the next assay the target is T3, mouse 4-1BB (m4-1BB) on transfected CHO …. Briefly: flow cytometry on CHO-m4-1BB cells, anti-mouse-IgG-Fc-FITC (1:100).
Protocol: as §1, §2
With B7, the binding result is “no binding (tested: 1 µg/ml)”.

Regarding B8, the binding result is on record as “no binding (tested: 1 µg/ml)”.

In another assay the target is T4, human 4-1BB (h4-1BB) on transiently transfected CHO cells (human, UniProt Q07011 24-255).
T4 construct: also called TNFRSF9; CD137
Briefly: flow cytometry, CHO cells transfected with human 4-1BB, antibody at 1 µg/ml.
Protocol: (§3) 25 μl CHO cells transiently transfected with human 4-1BB were added to each well in a plate. The purified antibodies were titrated to final concentrations of 10, 1, 0.1, 0.01, 0.001 μg/ml. The titrated antibodies were added to each well at 4° C. and incubated for 30 minutes.
(§4) After being washed with phosphate-buffered saline (PBS) (1200 rpm, 5 minutes) twice, 50 μl of FITC labeled anti-mouse IgG Fc antibody (anti-mIgG Fc-FITC) at 1:100 dilution was added into each well, and incubated for 30 minutes at 4° C., followed by PBS wash (1200 rpm, 5 minutes). The signal for FITC was detected by flow cytometry.
Take B1: the “percentage of cells with FITC signal” value came to 45%.

Consider B7, for which the “percentage of cells with FITC signal” value is 56.2%.

For B2, the “percentage of cells with FITC signal” value worked out at 62.9%.

Take B3: the “percentage of cells with FITC signal” value was determined as 23.7%.

For B8, the “percentage of cells with FITC signal” value is 69%.

For B4, the “percentage of cells with FITC signal” value stood at 52.3%.

As to B5, the “percentage of cells with FITC signal” value was 60.1%.

With B6, the “percentage of cells with FITC signal” value was found to be 56.4%.

For the next assay, the target named is T4, human 4-1BB (h4-1BB) on transiently …. Briefly: flow cytometry, CHO cells transfected with human 4-1BB, antibody at 10 µg/ml.
Protocol: as §3, §4
B1: the “percentage of cells with FITC signal” value came out at 49.8%.

On to B7, for which the “percentage of cells with FITC signal” value came out at 68.9%.

On to B2, for which the “percentage of cells with FITC signal” value worked out at 58.5%.

On to B3, for which the “percentage of cells with FITC signal” value is 52.9%.

As for B8, the “percentage of cells with FITC signal” value was 69.1%.

For the molecule B4, the “percentage of cells with FITC signal” value was determined as 53.6%.

B5: the “percentage of cells with FITC signal” value was determined as 63%.

Take B6: the “percentage of cells with FITC signal” value came to 56.7%.

For the next assay the target is unchanged. Briefly: flow cytometry, CHO cells transfected with human 4-1BB, antibody at 0.1 µg/ml.
Protocol: as §3, §4
On to B1, for which the “percentage of cells with FITC signal” value is 16.5%.

Regarding B7, the “percentage of cells with FITC signal” value stood at 25.3%.

For B2, the “percentage of cells with FITC signal” value was 52.3%.

For B3, the “percentage of cells with FITC signal” value turned out to be 1.14%.

For B8, the “percentage of cells with FITC signal” value amounted to 49.7%.

For B4, the “percentage of cells with FITC signal” value amounted to 36.1%.

For the molecule B5, the “percentage of cells with FITC signal” value was found to be 51.1%.

With B6, the “percentage of cells with FITC signal” value stood at 9.06%.

A further assay has the same target. Briefly: flow cytometry, CHO cells transfected with human 4-1BB, antibody at 0.01 µg/ml.
Protocol: as §3, §4
As to B1, the “percentage of cells with FITC signal” value is 0.445%.

Take B7: the “percentage of cells with FITC signal” value was 0.72%.

For B2, the “percentage of cells with FITC signal” value worked out at 26.2%.

Turning to B3, the “percentage of cells with FITC signal” value stood at 0.913%.

For B8, the “percentage of cells with FITC signal” value is 6.61%.

Turning to B4, the “percentage of cells with FITC signal” value worked out at 0.571%.

Turning to B5, the “percentage of cells with FITC signal” value was found to be 17%.

Take B6: the “percentage of cells with FITC signal” value turned out to be 3.37%.

A further assay shares this target. Briefly: flow cytometry, CHO cells transfected with human 4-1BB, antibody at 0.001 µg/ml.
Protocol: as §3, §4
In the case of B1, the “percentage of cells with FITC signal” value came to 0.111%.

In the case of B7, the “percentage of cells with FITC signal” value was 0.802%.

With B2, the “percentage of cells with FITC signal” value is 0.183%.

For the molecule B3, the “percentage of cells with FITC signal” value is 0.962%.

Regarding B8, the “percentage of cells with FITC signal” value stood at 0.316%.

On to B4, for which the “percentage of cells with FITC signal” value is 0.375%.

In the case of B5, the “percentage of cells with FITC signal” value is 3.43%.

B6: the “percentage of cells with FITC signal” value was determined as 1.25%.
